Laboratory results as given in PMC3088361.

The substances below were run against soluble CD4 (UniProt P01730) (assay: SPR).

First: HIV-1 YU-2 gp120 A281G (natural protein)
Second: HIV-1 YU-2 gp120 I420R (natural protein)
The Kd of the first is 2-fold lower: 12.3 nM for the first, 24.8 nM for the second.

First: HIV-1 YU-2 gp120 I423M/N425K/G431E (natural protein)
Second: HIV-1 YU-2 gp120 K282A (natural protein)
The Kd of the first is 6.6-fold higher: 78.1 nM for the first, 11.9 nM for the second.

Compared with “HIV-1 YU-2 gp120 N279A (natural protein)”, “HIV-1 YU-2 gp120 N280A (natural protein)” is 5.1-fold lower in Kd: 34.6 nM for the first, 6.8 nM for the second. The second binds more tightly here.

First: HIV-1 YU-2 gp120 P124A (natural protein)
Second: HIV-1 YU-2 gp120 R456A (natural protein)
The Kd of the first is 2.3-fold higher: 26.2 nM for the first, 11.3 nM for the second. The second binds more tightly here.

Going from “HIV-1 YU-2 gp120 S375W/T257S (natural protein)” to “HIV-1 YU-2 gp120 T278A (natural protein)”, the Kd rises from 0.9 nM to 7.3 nM (8.1-fold).

For “HIV-1 YU-2 gp120 T283A (natural protein)”, the Kd was 16.7 nM.
